Results taken from PMC11488661 (Science immunology, 2024).

Biological target: eOD-GT8 (monomeric ligand) (Human immunodeficiency virus 1, …)

Binder | Kd
g28v2-D38-10_CLK19 (antibody, V domains shown) VH: QVQLVQSGAEVKKPGASVKVSCKASGYTFTGYYIHWVRQAPGQGLEWMGWINPNSGGTNYPQKFQGRVTMTRDTSISTAYMELSRLRSDDTAVYYCALWFGEKWTFDIWGQGTMVTVSS VL: DIQMTQSPSSLSASVGDRVTITCQASQDIGNYLNWYHQRPGKAPKLLIYDASNLETGVPSRFSGSGSGPDSTFTISTLQPEDIGTYYCQQYDTFGPGTKVDIK | 0.0433 nM
g28v2-D38-1_CLK19 (antibody, V domains shown) VH: QVQLVQSGAEVKKPGASVKVSCKASGYTFTGHHMHWVRQAPGQGLEWLGWINPRGGGTNYAQKFQGRVTMTRDTSISTAYMDLSRLRSDDTAVYYCTPVLATFRWRFDYWGQGTLVTVSS VL: DIQMTQSPSSLSASVGDRVTFTCQASQDISNFLNWYQQKPGKAPKLLIYDTSNLEAGVPSRFSGGGSGTDFTFTISSLQPEDVATYYCQQYATFGPGTKVDIK | 6.29 nM
g28-D78-1_CLK09 (antibody, V domains shown) VH: QVQLVQSGAEVKKPGASVKVSCKTSGYTFTAYYVHWVRQAPGQGLEWMGWINPTNGATNYAQIFQGRVTMTRDTSISTAYMELNRLRSDDTAVYYCARVGGLWAFDIWGQGTIVTVSS VL: DIQMTQSPSSLSASVGDRVTITCQTSQHITRNLNWYQQKPGKAPKLLISDAYNLKIGVPSRFSGSGSGTDFTFTISSLQPEDVATYYCQQYEFFGGGTEVEIK | 7.1 nM
g28-D78-19_CLK09 (antibody, V domains shown) VH: QVQLVQSGAEVKKPGASVKVSCKTSGYTFTAYYVHWVRQAPGQGLEWMGWINPTNGATNYAQIFQGRVTMTRDTSISTAYMELNRLRSDDTAVYYCARVGGLWAFDIWGQGTIVTVSS VL: DIQMTQSPSSLSASVGDRVTITCQASQHITRNLNWYQQKPGKAPKLLISDAYNLKIGVPSRFSGSGSGTDFTFTISSLQPEDVATYYCQQYEFFGGGTEVEIK | 8.8 nM
g28-D78-10_CLK09 (antibody, V domains shown) VH: QLQLVQSGADVKKPGASVKVSCKASGYTFTGYFIHWVRQAPGQGLEWMGWLNPIYGGVNYARNFQGRVTMTRDTSISTAYLELRRLKSDDTAVYYCARVAERMIFDVWGQGTMVTVSS VL: DIQMTQSPSSLSASVGDRVTIACQASQDINNYVNWYQQKPGKAPKLLIYDASNLETGVPSRFSGSGSGTDFTFTISSLQPEDIATYYCQQYEFFGGGTKVEIK | 11 nM
g28-D78-20_CLK09 (antibody, V domains shown) VH: QLQLVQSGAEVKKPGASVKVSCKASGYTFTGYFIHWVRQAPGQGLEWMGWLNPIYGGVNYARNFQDRVTMTRDTSISTAYLELRRLKSDDTAVYYCARVAERMIFDVWGQGTMVTVSS VL: DIQMTQSPSSLSASVGDRVTIACQASQDINNYVNWYQQKPGKAPKLLIYDASNLETGVPSRFSGSGSGTDFTFTISSLQPEDIATYYCQQYEFFGGGTKVEIK | 6.8 nM
g28-D78-13_CLK09 (antibody, V domains shown) VH: QLQLVQSGAEVKKPGASVKVSCKASGYTFTGYFIHWVRQAPGQGLEWMGWLNPIYGGVNYARNFQGRVTMTRDTSISTAYLELKRLKSDDTAVYYCARVAERMIFDVWGQGTMVTVSS VL: DIQMTQSPSSLSASVGDRVTIACQASQDINNYVNWYQQKPGKAPKLLIYDASNLETGVPSRFSGSGSGTDFTFTISSLQPEDIATYYCQQYEFFGGGTKVEIK | 11 nM
g28-D78-4_CLK09 (antibody, V domains shown) VH: QLQLVQSGAEVKKPGASVKVSCKASGYTFTGYFIHWIRQAPGQGLEWMGWLNPIYGGVNYARNFQGRVTMTRDTSISTAYLELKRLKSDDTAVYYCARVAERMIFDVWGQGTMVTVSS VL: DIQMTQSPSSLSASVGDRVTIACQASQDINNYVNWYQQKPGKAPKLLIYDASNLETGVPSRFSGSGSGTDFTFTISSLQPEDIATYYCQQYEFFGGGTKVEIK | 6.5 nM
g28-D78-8_CLK09 (antibody, V domains shown) VH: QLQLVQSGAEVKKPGASVKVSCKASRYTFTGYFIHWVRQAPGQGLEWMGWLNPIYGGVNYARNFQDRVTMTRDTSISTAYLELRRLKSDDTAVYYCARVAERMIFDVWGQGTMVTVSS VL: DIQMTQSPSSLSASVGDRVTIACQASQDISNYVNWYQQKPGKAPKLLIYDASNLETGVPSRFSGSGSGTDFTFTISSLQPEDIATYYCQQYEFFGGGTKVRIK | 8 nM
g28-D78-6_CLK09 (antibody, V domains shown) VH: QLQLVQSGADVKKPGASVKVSCKASGYTFTGYFIHWVRQAPGQGLEWMGWLNPIYGGVNYARNFQDRVTMTRDTSISTAYLELRRLKSDDTAVYYCARVAERMIFDVWGQGTMVTVSS VL: DIQMTQSPSSLSASVGDRVTIVCQASQDINNYVNWYQQKPGKAPKLLIYDASNLETGVPSRFSGSRSGTDFTFTISSLQPEDIATYYCQQYEFFGGGTKVEIK | 7.6 nM
g28-D78-12_CLK09 (antibody, V domains shown) VH: QLQLVQSGTEVKKPGASVKVSCKASGYTFTGYFIHWVRQAPGQGLEWMGWLNPIYGGVNYARNFQGRVTMTRDTSISTAYLELKRLKSDDAAVYYCARVAERMIFDVWGQGTMVTVSS VL: DIQMTQSPSSLSASVGDRVTIACQASQDINNYVNWYQQKPGKAPKLLIYDASNLETGVPSRFSGSGSGTDFTFTISSLQPEDIATYYCQQYEFFGGGTKVEIK | 11 nM
g28-D78-11_CLK09 (antibody, V domains shown) VH: QLQLVQSGADVKKPGASVKVSCKASGYTFTGYFIHWVRQAPGQGLEWMGWLNPIYGGVNYARNFQDRVTMTRDTSISTAYLELRRLKSDDTAVYYCARVAERMIFDVWGQGTMVTVSS VL: DIQMTQSPSSLSASVGDRVTIACQSSQGINNYVNWYQQKPGKAPKLLIYDASNLETGVPSRFSGSGSGTDFTFTISSLQPEDIATYYCQQYEFFGGGTKVEIK | 9 nM
g28-D78-16_CLK09 (antibody, V domains shown) VH: QVQLVQSGAEVKKPGASVKVSCKASGYTFTGYHIHWVRQAPGQGLEWMGWVNPYHGGTNYAQIFQGRVTMTRDTSISTAYMELSRLRSDDTAVYYCALWFGEKKTFDIWGQGTMVTVSS VL: DIQMTQSPSSLSASVGDRVTITCQASQGISNFLNWFQQKPGKAPKLLIYDVSNLETGVPSRFSGSGSGTDFTFTISSLQPEDIATYYCQQYEFFGGGTKVEIK | 130 nM
g28-D78-3_CLK09 (antibody, V domains shown) VH: QLQLVQSGAEVKKPGASVKVSCKASGYTFTGYFIHWIRQAPGQGLEWMGWLNPIYGGVNYARNFQGRVTMTRDTSISTAYLELKRLKSDDTAVYYCARVAERMIFDVWGQGTMVTVSS VL: DIQMTQSPSSLSASVGDRVTIACQASQDINNYVNWYQQKPGKAPKLLIYDASNLETGVPSRFSGSGSGTDFTFTISSLQPEDIATYYCQQYEFFGGGTKVRIK | 7.1 nM
g28-D78-2_CLK09 (antibody, V domains shown) VH: QLQLVQSGAEVKKPGASVKVSCKASGYTFTGYFIHWVRQAPGQGLEWMGWLNPIYGGVNYARNFQGRVTMTRDTSISTAYLELKRLKSDDTAVYYCARVAERMIFDVWGQGTMVTVSS VL: DIQMTQSPSSLSASVGDRVTIACQASQDINNYVNWYQQKPGKAPKLLIYDASNLETGVPSRFSGSRSGTDFTFTISSLQPEDIATYYCQQYEFFGGGTKVRIK | 15 nM
g28-D78-18_CLK09 (antibody, V domains shown) VH: QVQLVQSGAEVKKPGASVKVSCKASGYTFTDYHIHWVRQAPGQGLEWMGWVNPYHGGTNYAQIFQGRVTMTRDTSISTAYMELSRLRSDDTAVYYCALWFGEKKTFDIWGQGTMVTVSS VL: DIQMTQSPSSLSASVGDRVTITCQASQGISNFLNWFQQKPGKAPKLLIYDVSNLETGVPSRFSGSGSGTDFTFTISSLQPEDIATYYCQQYEFFGGGTKVEIK | 82 nM
g28-D78-5_CLK09 (antibody, V domains shown) VH: QLQLVQSGAEVKKPGASVKVSCKASGYTFTGYFIHWVRQAPGQGLEWMGWLNPIYGGVNYARNFQDRVTMTRDTSISTAYLELRRLKSDDTAVYYCARVAERMIFDVWGQGTMVTVSS VL: DIQMTQSPSSLSASVGDRVTIACQASQDISNYVNWYQQKPGKAPKLLIYDASNLETGVPSRFSGSGSGTDFTFTISSLQPEDIATYYCQQYEFFGGGTKVEIK | 6 nM
g28-D78-15_CLK09 (antibody, V domains shown) VH: QLQLVQSGADVKTPGASVKVSCKASGYTFTSYFIHWVRQAPGQGLEWMGWLNPIYGAVNYARNFQDRVTMTRDTSISTAYLELRRLKSDDTAVYYCARVAERMIFDVWGQGTMVTVSS VL: DIQMTQSPSSLSASVGDRVTIACQASQDINNYVNWYQQKPGKAPKLLIYDASNLETGVPSRFSGSGSGTDFTFTISSLQPEDIATYYCQQYEFFGGGTKVEIK | 160 nM
g28-D78-14_CLK09 (antibody, V domains shown) VH: QVQLVQSGAEVKKPGASVRVSCKASGYTFTGNYIHWVRQAPGQGLEWMGWLNPINGGTNHAQKFQGRVTMTRDTSISTAYMELSRLRSDDTTVYYCARVGGLWFGKGWTFDIWGQGTMVTVSS VL: DIQMTQSPSSLSASVGDRVTITCQASQDISILNWYQQKPGKAPKLLIYGASNLETGVPSRFSGSGSGTDFTLTISSLQPEDIATYYCQQYEFFGGGTKVAIK | 0.29 nM
g28-D78-7_CLK09 (antibody, V domains shown) VH: QVQLVQSGAEVKKPGASVRVSCKASGYTFTGNYIHWVRQAPGQGLEWMGWLNPINGGTNHAQKFQGRVTMTRDTSINTAYMELSRLKSDDTTVYYCARVGGLWSGKGWTFDIWGQGTMVTVSS VL: DIQMTQSPSSLSASVGDRVTITCQASQDISILNWYQQKPGKAPKLLIYGASNLETGVPSRFSGSGSGTDFTFTISSLQPEDIATYYCQQYEFFGGGTKVEIK | 0.2 nM
g28-D78-21_CLK09 (antibody, V domains shown) VH: QLQESGAEVKKPGASVRVSCKASGYTFTGNYIHWVRQAPGQGLEWMGWVNPINGGTNHAQKFQGRVTMTRDTSISTAYMELSRLRSDDTTVYYCARVGGLWFGKGWTFDIWGQGTMVTVSS VL: DIQMTQSPSSLSASVGDRVTITCQASQDISILNWYQQKPGKAPKLLIYGASNLETGVPSRFSGSGSGTDFTFTISSLQPEDIATYYCQQYEFFGGGTKVRIK | 0.87 nM
g28-D78-9_CLK09 (antibody, V domains shown) VH: QVQLVQSGAEVKKPGASVRVSCKASGYTFTGNYIHWVRQAPGQGLEWMGWLNPINGGTNHAQKFQGRVTMTRDTSISTAYMELSRLRSDDTTVYYCARVGGLWSGKGWTFDIWGQGTMVTVSS VL: DIQMTQSPSSLSASVGDRVTITCQASQDISILNWYQQKPGKAPKLLIYGASNLETGVPSRFSGSGSGTDFTFTISSLQPEDIATYYCQQYEFFGGGTKVEIK | 0.19 nM
g28-D78-17_CLK09 (antibody, V domains shown) VH: QVQLVQSGAEVKKPGASVRVSCKASGYTFTGNYIHWVRQAPGQGLEWMGWLNPINGGTNHAQKFQGRVTMTRDTSISTAYMELSRLRSDDTTVYYCARVGGLWLGKGWTFDIWGQGTMVTVSS VL: DIQMTQSPSSLSASVGDRVTITCQASQDISILNWYQQKPGKAPKLLIYGASNLETGVPSRFSGSGSGTDFTFTISSLQPEDIATYYCQQYEFFGGGTKVEIK | 0.25 nM
